From publication PMC4301871 (2015)
Several values for one entry are separate records, joined by “and”; a condition that tells them apart may be missing. Equal entries are not always repeated.

T1: LATS2 (Homo sapiens)
T1 chain: RRCPPPPYPKHL

T2: LATS1-b (Homo sapiens)
T2 chain: YQGPPPPYPKHL

T3: PTCH1-a (Homo sapiens)
T3 chain: RYSPPPPYSSHS

T4: PTCH1-b (Homo sapiens)
T4 chain: EGLWPPPYRPRR

T5: LATS1-a (Homo sapiens)
T5 chain: NRQPPPPYPLTA


Columns and labels:
Assay in all cases: ITC
LATS2 = target: T1, LATS2
LATS1-b = target: T2, LATS1-b
PTCH1-a = target: T3, PTCH1-a
PTCH1-b = target: T4, PTCH1-b
LATS1-a = target: T5, LATS1-a

Kd (LATS2)	Kd (LATS1-b)	Kd (PTCH1-a)	Kd (PTCH1-b)	Kd (LATS1-a)	Binder
7.1 µM	3.7 µM	27.6 µM	13.2 µM	21.5 µM	FEIPDDVPLPAGWEMAKTSSGQRYFLNHIDQTTTWQDPRKAMLSQ [YAP-WW1 165-209]
8.2 µM	33.9 µM	45.8 µM		27 µM	ASGPLPDGWEQAMTQDGEIYYINHKNKTTSWLDPRLDPRFAMNQ [YAP-WW2 228-271]
9.2 µM		47.4 µM and 24.7 µM	16.9 µM	33.4 µM	YAP-WW1-WW2 165-271 (protein) FEIPDDVPLPAGWEMAKTSSGQRYFLNHIDQTTTWQDPRKAMLSQMNVTAPTSPPVQQNMMNSASGPLPDGWEQAMTQDGEIYYINHKNKTTSWLDPRLDPRFAMNQ
